Data taken from patent US20240254206A1 (ROCKEFELLER UNIVERSITY, published 2024).
Changes are numbered by the printed parent chain.

B1: 12A12 (antibody, V domains shown)
VH: SQQLVQSGTQVKKPGASVRISCQASGYSFTDYVLHWWRQAPGQGLEWMGWIKPVYGARNYARRFQGRINFDRDIYREIAFMDLSGLRSDDTALYFCARDGSGDDTSWHLDPWGQGTLVIVSA
VL: DIQMTQSPSSLSASVGDRVTITCQAGQGIGSSLQWYQQKPGKAPKLLVHGASNLHRGVPSRFSGSGFHTTFSLTISGLQRDDFATYFCAVLEFFGPGTKVEIKR
notes: also called 12A12HC; 12a12kc
B2: 12A21 (antibody, V domains shown)
VH: SQHLVQSGTQVKKPGASVRVSCQASGYTFTNYILHWWRQAPGQGLEWMGLIKPVFGAVNYARQFQGRIQLTRDIYREIAFLDLSGLRSDDTAVYYCARDESGDDLKWHLHPWGQGTQVIVSP
VL: DIQMTQSPSSLSASVGDRVTINCQAGQGIGSSLNWYQKKPGRAPKLLVHGASNLQRGVPSRFSGSGFHTTFTLTISSLQPDDVATYFCAVFQWFGPGTKVDIKR
notes: also called 12A21HC; 12a21kc
B3: 1NC9 (antibody, V domains shown)
VH: QVRLVQSGAQLKKPGASVTVSCEASGYNFVNYIINWVRQTPGRSFEWVGMIDPRRGRPWSAQKFQGRLTLTRDIDSEKLYMHLSGLRGDDTAVYYCARQDSDFHDGHGHTLRGMFDSWGQGSPVTVSS
VL: QVLSVSGTPGQRVIISCSGTSSNVGGNLVSWYQHLPGAAPRLLIHRDDQRPSGVPDRFSGSKSGNSASLVISGLRSDDEADYFCAAYDSTFSLPVFGGGTRLTVLS
notes: also called LSSNEC9HC; LSSNEC9LC
B4: 8ANC195 (antibody, V domains shown)
VH: QIHLVQSGTEVKKPGSSVTVSCKAYGVNTFGLYAVNWVRQAPGQSLEYIGQIWRWKSSASHHFRGRVLISAVDLTGSSPPISSLEIKNLTSDDTAVYFCTTTSTYDKWSGLHHDGVMAFSSWGQGTLISVSA
VL: DIQMTQSPSTLAASIGGTVRVSCRASQSITGNWVAWYQQRPGKAPRLLIYRGAALLGGVPSRFSGSAAGTDFTLTIGNLQAEDFGTFYCQQYDTYPGTFGQGTKVEVKR
notes: also called 8ANC195HC; 8ANC195KC
B5: 1B2530 (antibody, V domains shown)
VH: QVRLEQSGAAMRKPGASVTLSCQASGYNFVKYIIHWVRQKPGLGFEWVGMIDPYRGRPWSAHKFQGRLSLSRDTSMEILYMTLTSLKSDDTATYFCARAEAASDSHSRPIMFDHWGQGSRVTVSS
VL: QSALTQPPSASGAPGQRVTISCSGGPSNVGGNYVYWYRQFPGTAPTLLILRDDQRPSGVPDRFSASKSGNSASLAISGLRPDDEGFYFCATYDSDGSIRLFGGGTALTVLS
notes: also called LSSB2530HC; LSSB2530LC
B6: 3BNC60 (antibody, V domains shown)
VH: QVHLSQSGAAVTKPGASVRVSCEASGYKISDHFIHWWRQAPGQGLQWVGWINPKTGQPNNPRQFQGRVSLTRQASWDFDTYSFYMDLKAVRSDDTAIYFCARQRSDFWDFDVWGSGTQVTVSSASTKG
VL: DIQMTQSPSSLSARVGDTVTITCQANGYLNWYQQRRGKAPKLLIYDGSKLERGVPARFSGRRWGQEYNLTINNLQPEDVATYFCQVYEFIVPGTRLDLKRTVAA
notes: also called 3BNC60HC; 3BNC60KC
B7: 3BNC117 (antibody, V domains shown)
VH: B6 VH with H3Q, S5L, K28N, S30R, H32Y, Q73H, Y81F, V90L, I97V, F107Y
VL: DIQMTQSPSSLSASVGDTVTITCQANGYLNWYQQRRGKAPKLLIYDGSKLERGVPSRFSGRRWGQEYNLTINNLQPEDIATYFCQVYEFVVPGTRLDLKRTVAAPSVFIFPPSD
notes: also called 3BNC117HC; 3bnc117kc
B8: 8ANC131 (antibody, V domains shown)
VH: QGQLVQSGGGLKKPGTSVTISCLASEYTFNEFVIHWIRQAPGQGPLWLGLIKRSGRLMTAYNFQDRLRLRRDRSTGTVFMELRGLRPDDTAVYYCARDGLGEVAPDYRYGIDVWGQGSTVIVTA
VL: EIVLTQSPATLSLSPGERATLSCRASQGLNFVVWYQQKRGQAPRLLIHAPSGRAPGVPDRFSARGSGTEFSLVISSVEPDDFAIYYCQEYSSTPYNFGPGTRVDRKR
notes: also called 8ANC131HC; 8ANC131KC
B9: 8ANC134 (antibody, V domains shown)
VH: B8 VH with L11V, L46V, A60S, N62K, R68S, P87L, D106A, R108L, V113A, A124S
VL: B8 VL with R39G, A49G, S51T, G52D, I84L
notes: also called 8ANC134HC; 8ANC134KC
B10: NIH45-46 (antibody, V domains shown)
VH: QVRLSQSGGQMKKPGESMRLSCRASGYEFLNCPINWIRLAPGRRPEWMGWLKPRGGAVNYARKFQGRVTMTRDVYSDTAFLELRSLTSDDTAVYFCTRGKYCTARDYYNWDFEH
VL: EIVLTQSPATLSLSPGETAIISCRTSQSGSLAWYQQRPGQAPRLVIYSGSTRAAGIPDRFSGSRWGADYNLSISNLESGDFGVYYCQQYEFFG
B11: 3BNC55 (antibody, V domains shown)
VH: QVQLVQSGTAVKRPGASVRVSCQASGYTFTDYFIYWWRQAPGQGLEWLGWINPLTSQPSYPSRFQGRLTLTRDTFDEMLYMDLRGLRSDDTGIYFCARRHSDYCDFDIWGSGTQIIVSS
VL: DIQMTQSPSSLSASVGDKVTITCQTSAGYLNWYQQRRGRAPKLLMYDGSRLVTGVPSRFSGRRWGTQYNLTIGSLQPEDIATYYCQVYEFFGPGTRLDLKS
notes: also called 3BNC55HC; 3BNC55KC
B12: 3BNC66 (antibody, V domains shown)
VH: QVQLVQSGAALKKPGASLRISCQTYGYKFTDHLIYWWRQAPGQGLEWIGWIKPETGQPSYSYRFQGRVSLTRDTFEEIAFMDLRGLRSDDTAIYFCARRHTDYCVFDVWGSGSQIIVSS
VL: B11 VL with K18T, S26N, A27K, R50K, F59L, S101R
notes: also called 3BNC66HC; 3bnc66kc
B13: 3BNC156 (antibody, V domains shown)
VH: B12 VH with A79V, T101S, V105D, S111G, I115V
VL: B11 VL with K18T, S26N, A27K, R36K, R50K, F59L, S101R
notes: also called 3BNC156HC; 3bnc156kc

Target: 2CC-core
Assay: SPR, antigen on chip, IgG injected

| Binder | Kd [nM] | koff [s⁻¹] | kon [M⁻¹ s⁻¹] |
| --- | --- | --- | --- |
| B1 | 0.0269 | 1.7e-06 | 63300 |
| B2 | 1.81 | 0.00033 | 182000 |
| B3 | 4.61 | 0.000236 | 51100 |
| B4 | 54.7 | 0.00132 | 24100 |
| B5 | 5.9 | 0.000402 | 68300 |
| B6 | 54.5 | 0.00164 | 30200 |
| B7 | 36.8 |  |  |
| B8 | 66.1 | 0.00323 | 48800 |
| B9 | 46.1 | 0.000957 | 20800 |
| B10 | 4.4 | 0.000494 | 112000 |
| B11 | 25.7 |  |  |
| B12 | 33.6 | 0.00133 | 39600 |
| B13 | 81.2 | 0.00153 | 18800 |
